These results are taken from paper PMC7538550.

The assay has as its target FMDV A2001 Argentina capsid protomer (VP0, VP3 and VP1 cut from the polyprotein P12A by protease 3C) (Foot-and-mouth disease virus, serotype A, A2001 Argentina strain). Description: sucrose gradient ultracentrifugation with ELISA of the fractions. In general terms: In an ELISA, binding on a coated surface is turned into a signal by an enzyme label.

“FMDV A2001 Argentina capsid protomer (VP0, VP3 and VP1 cut from the polyprotein P12A by protease 3C) (complex)”: the percent of the antigen present as complete empty capsids (75s) is 84%.
